Experimental data taken from the domain aggregation screens of Martell et al. (2025).

Experiment: soluble fraction after stress (log2 fold change); higher = more stays soluble; pooled small domains, quantitative proteomics
Conditions: stress: 75 degC
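Further: 20 min heating vs room temperature control held 20 min.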

Sequence | soluble fraction (log2)
HMQQIEIEEPITVKNLSAVAGLKASEIIAKLMKLGVMSTINQVMERQHAEEIAGEYGFELVVK | -0.132
HMQQISDPQVLRPMAEEVLHQSQKVVQDYKGGNKNAFHALVGQMMKKTQGKGNPQVIGQVLSELLDE | 0.98
HMQQKNWIVRDGDGKIYGPFTTEQVLVQIDRGYFVGGEEVALYPGGRWIAISGAPEFYDRLLDALAMEG | -0.995
HMQQQLLHIVFGGELKDVTGIEFEDLSKMDFVGAFSNYKDAYDAWKSAAQRTVDHAEMRYFILHAHKLL | -6.11
HMQQRTVEHVDTAVEALALSIGERAGVDLPYMAHLTGKTQEDLIEDLTGVIFPVPGTEPLRYVTADDYLS | 0.181
HMQQSVSSLVRRYMLQTIPGINFSLKSTALALNMSDRTLQRKLLSENTSYQIILDDVRKELAIKYLKE | -3.23
HMQQVIQSGQKVQLMATDGSFQVSAEGVALKNGSVGEVIGVRMPSGRVISGVVSASGAVEVR | 0.125
HMQQVLGDVNEDDKVDFLDAIVVLRHDAEIIQLTDNQMKAAEVNKDGKVDFLDAIMILRYDAEIIGS | -0.0321
HMQRDDMQIDRLIQIVFLLLSRNNLTAKQLAEELGVSTRTIYRDINILSVAGIPITSQKGYGGGLSLLQG | -0.608
HMQRDELRYDQFLTALQNKEFTQLNVRFDDYTYLVTGTFQSGRPFSTRGPVSEEFIRLIESSGVQVTWLPM | -1.65
HMQRDERYVYHTVLAGETIYSLSRKFNVTMDELLESNPALRSGVLTTGSEIRVLKAQMAQNFD | -1.25
HMQRQGTVATQQTPLNIRSQPSLSAQVIGQAPKGATVAILGESGDWYQIRYQNITGYSSKQYI | 0.0804
HMQRSVEDVFVQLRNGMDTYDMTQIEDALRILHGMELSTAQRDLLDKVQEAYNDLEYETGAALLAGFERIK | 0.134
HMQRYFINEPVPEDQRLVLPKDIAHHLVDVLRAEQNDELEVALNDQKVYLARLISLNPATVELQSDLG | 0.465
HMQRYFLEEAYQPSEKFELSAEAFHHIVHVMRMKPKDRVYLAFSDQQVIIAEITEITEEKVYLTEIEKEE | -3.23
HMQRYYDVLGLQKGVSPEELKKTYRELSKKYHPDAHHNSPLRDLAEAKFKEINEAYEKIKEFLDNNF | -0.207
HMQSAKLSYSDFMQKVNAGDVVSVKIQGPKISGVTTGGGKFMTYAPEDPTLVSTLMQKKVEVMAEP | 0.139
HMQSAMALTKDLIEQQGKYYHRGQPFTGVGFAKNKKGKFVTEEPFKNGLLHGKRVNYDHNGHVLAREK | -0.105
HMQSEESTHIGERMLNQALRAMHVEPSAVKEKQWEKLIRDYSVKNKQDILTDIGLGKRQSVMVAHQLLAI | -0.165
HMQSEISRIGRILKERRLQLGYTQEYAAEKAGISYSYYTKIERGQQLPSLEVAMVLSKTFSLSMDRWL | -4.78
HMQSFIEELLPVVDNFERSLAVVDPSDEIKNFLKGYEMIYNQLMEVLKSQGVEVIKTEGEEFDPNFHQA | -0.121
HMQSHIVPDVKSQHIAQAKALLESKQMKAVVIDSNFVKGLPAGIVLDQTPIGGARVKENRTIYLTINTL | -1.56
HMQSMEIDENEIPSIDKLSEYIEYFKRIYNALFDDKQLAITNIDVLERHFANNFNTLRFKMDE | 0.169
HMQSNDAGELEAVVKGIIDANPKVVADYLAGNQKVVSFFVGQAMKATKGKANPKMVSEILGKLL | -0.0975
HMQSQIAQLYNPLLGYVKKRINSREDAEDLTQDIFLKLSKSNKDGVDNLKSWLYTIAKNTITDYYRKKKII | -0.0844
HMQSREISYSDFVASVERGEVATVILDGENIRFKGGDNVEYVTVRPADTNVTDLLIENQVVVRAEK | 0.231
HMQSTVSTHQKTLALDTAQSGIPVFPVSSTHKRPLTDHGYKDATADADAVRKIWQQFPSAFV | 0.28
HMQSVKTQPLRDWLLAHFDKPYPDDEDKVRLAEASGMTRAQVGNWFINARVRTWRPMVLDLGEEIERESV | -0.325

Sequence | soluble fraction (log2)
HMQTEFVISSGEQPKRLDVFLLQREPYLSRAALQRMIAAGWVRVNNHLAKSSQRIKAGDVIVFD | -1.42
HMQTFGTMIAALRKEQGMTQLELAEKMGVTDKAVSKWERDLSFPDVNSLPKLAEIFHVSVDEL | -0.16
HMQTLGADLRALRKARGLTLTDMAETLGRSVGWLSQVERDLSEPSITDLRHMARTLGVSVSMLFS | -1.52
HMQTLQNNLKQIRSRVGLTQGELASRAGISRQAYSTLESGNANPSTEVSLRLAEALNERIESLFFLANQ | -0.495
HMQTSETVYTTDKVNVRAGADTSSDKLGSVEKGTSLTRTGTDGDWSIIDYNGTTGYIKSEYLSATAPE | 0.566
HMQTTKTGTITASSLYVRSGASTSHKVLGTVSKGKTVQIKDTQDGWHKISYNGDHGWVSGKYVSTT | 0.226
HMQTTVHLSPEEMVIMNALKQESPIDLPILRAQVEMSNKLWDTSMKNLSKLGQLKVEKIGEQVSVSLI | -0.582
HMQVAPDLMQRLTSQGHVDEKLSDALVHARQITNFEGRRRQMQFIGKLMRKLSEESIEAVKDALNEQRM | -0.313
HMQVDENNINKRIDKYLSENTEYSRSTIQKMIDNGNITVNSKPTKSSYKLELNDIITIDNNFKE | 0.0359
HMQVEYTRGELIQDLEGGKIVYAGISPSRETPTGEVNFILDSGLTRTLYVTDVSEIEQLLISYDIDPEVKK | -0.0196
HMQVFDSNEIDEVVKKVIENNPQAVADFKKGKSNALQFLAGQVMRETKGRFNPNVVQERIRLLLT | 0.671
HMQVLLTRREKEILKLIAEGLTSAEIGKRLFISTTTVDTHRKHLLEKLKAGNTAILIKTAVQLDLI | -2.53
HMQVPWYQRLKEKRLEYGVSQNKLATHIGISRQYMSEIETGKVTPSDSLQATLFDILEQFNPDA | -0.817
HMQVRVERSRDKVVISGVNYYIHPVRKGETVYSIARAYGITTQDLVRENPSAAEGLKEGQSIRIPERLVD | -0.438
HMQVSDEGPIKAILQEVLDKSPTQLADYASGKVKLRQYFFGEAMKALKGKANPQVINKLLDEMLPPVAA | -0.0324
HMQVSDVTELRTILEKVITENESVATEFKEGKDAAMNFLVGQGMKATRGAADPALLKEIITGIL | -0.0525
HMQVSITGYLGGEKIGLFDDAKFKALAAKQGIAIDYRKAGSPAMMDADRKGMDYLFPSSRAAVEYGNAKGV | -0.00209
HMQVTDTGTIEGEIDKVLAANPDRVTEYHDGKEKILGWFVGQVMQTTKGKANPQMVNQLFLEKLK | 0.0105
HMQVTPQVLRLLDVLGDKELSLRQIAEALGLSDRKNIMRNYVVPALDSGRVVRTVPNKPNSRFQKYRK | -0.739
HMQYDALVLNLLQEKNLTSESLKDAQRAFAKSHNLSTLPSKSQILQAYFQLLEQGKIEKNPDFELLL | -0.394
HMQYFDIETEIQKFIKSENNLSDFDKETLQSFLYQLSKGSPEENTAKKVVDILNKFLPLTTAIINMIKALT | 0.0503
HMQYYITKIANYDQVSPNLLVRTAEGQYMVKTNADILDTDVTKLTEEEIRKDWGYLFENGFSELV | -0.498
HMRAAEPTTDAQRDRRRRIVLTAMTMLQERGYDEIQMRDVAQQAGVALGTLYRYFPSKEQLFAHVLVE | -1.71
HMRAAFEHLTIGQTVSGLVKSQARGVSLVEIEGQTVAMRLPQPVAVGDTLRLRFAGHMPQPVFLLDT | -1.59
HMRADYVGGLDPAGDNFLALRTGPGSGYAMILPMGPGTFVTVLRRNGKWLLVELEDGTRGWAYGSYILG | -2.32
HMRAGALTTLTERERNVFDLVVTGHSNPEIARQLSIADVTVKTHVGHILSKLGVRDRVHLVIWAHRQGLAD | -2.84
HMRAMWENLFFQYKEGFLPEEYYKQGIATGIRLAGPKFVEMNIPMQKEFEDEVHRLLAEHEKSVK | -0.914
